Reference: article PMC7160673 (2020)
Read-outs that look alike come from different tables or passages of the source. Where no end group is shown, it is not given here. [ ]: non-standard residue; d: D form. The star is where a group is joined. 5FAM = O=C1OC2(c3ccc(O)cc3Oc3cc(O)ccc32)c2ccc(C(=O)*)cc21; Lys(Me3) = C[N+](C)(C)CCCC[C@H](N)C(=O)O

What was measured:
Assay in all cases: FP
[1] = target: T1, Chromodomain Y-like protein 2 chromodomain
T1 chain: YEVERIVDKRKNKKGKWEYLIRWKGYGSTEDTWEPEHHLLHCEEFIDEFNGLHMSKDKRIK

[2] = target: T2, M Phase Phosphoprotein 8 chromodomain (UniProt Q99549 55-116)
T2 chain: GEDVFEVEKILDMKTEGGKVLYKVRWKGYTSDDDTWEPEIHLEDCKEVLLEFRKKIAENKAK

[3] = target: T2, M Phase Phosphoprotein 8 chromodomain

Binder: 5FAM-TAR[Lys(Me3)]STG (also: flanking glycines, number not given here) [FAM-TAR(Kme3)STG peptide (H3K9me3)]
- Kd [1]: 18.4 µM
- Kd [2]: 11.5 µM

Binder: 5FAM-WAY[Lys(Me3)]TGK (also: flanking glycines, number not given here) [FAM-WAY(Kme3)TGK peptide]
- Kd [3]: 1.37 µM
